The values below come from patent publication US20140271675A1 (Eli Lilly, published 2014).

In test [1] the target is T1, mouse VEGFR1 (Mouse, UniProt P35969 23-759, limits assumed).
T1 construct: also called VEGFR1 Mouse
T1 sequence (looked up): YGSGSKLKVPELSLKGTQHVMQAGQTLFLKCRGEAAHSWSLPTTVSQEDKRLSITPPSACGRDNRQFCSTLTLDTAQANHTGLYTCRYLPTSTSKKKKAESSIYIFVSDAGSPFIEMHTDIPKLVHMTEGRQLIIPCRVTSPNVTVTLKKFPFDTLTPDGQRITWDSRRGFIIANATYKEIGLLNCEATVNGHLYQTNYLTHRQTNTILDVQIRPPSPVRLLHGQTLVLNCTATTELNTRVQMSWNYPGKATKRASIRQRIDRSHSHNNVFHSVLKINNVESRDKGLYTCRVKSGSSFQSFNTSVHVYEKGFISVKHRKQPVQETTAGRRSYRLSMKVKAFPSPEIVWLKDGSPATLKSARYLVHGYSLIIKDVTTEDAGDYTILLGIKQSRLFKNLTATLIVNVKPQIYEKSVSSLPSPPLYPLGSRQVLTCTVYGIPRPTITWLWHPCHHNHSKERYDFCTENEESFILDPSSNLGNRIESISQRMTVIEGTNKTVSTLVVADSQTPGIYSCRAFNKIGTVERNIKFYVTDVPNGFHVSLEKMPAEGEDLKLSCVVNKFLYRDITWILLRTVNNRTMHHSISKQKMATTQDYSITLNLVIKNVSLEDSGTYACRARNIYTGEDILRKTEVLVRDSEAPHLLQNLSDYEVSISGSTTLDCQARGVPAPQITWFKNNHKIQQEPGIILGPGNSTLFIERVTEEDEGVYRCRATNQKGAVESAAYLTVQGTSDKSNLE
Description: SPR (Biacore), 25 C, n=1.

Test [2] concerns the target T2, mouse VEGFR3 (Mouse, UniProt P35917 25-775, limits assumed).
T2 construct: also called VEGFR3 Mouse
T2 sequence (looked up): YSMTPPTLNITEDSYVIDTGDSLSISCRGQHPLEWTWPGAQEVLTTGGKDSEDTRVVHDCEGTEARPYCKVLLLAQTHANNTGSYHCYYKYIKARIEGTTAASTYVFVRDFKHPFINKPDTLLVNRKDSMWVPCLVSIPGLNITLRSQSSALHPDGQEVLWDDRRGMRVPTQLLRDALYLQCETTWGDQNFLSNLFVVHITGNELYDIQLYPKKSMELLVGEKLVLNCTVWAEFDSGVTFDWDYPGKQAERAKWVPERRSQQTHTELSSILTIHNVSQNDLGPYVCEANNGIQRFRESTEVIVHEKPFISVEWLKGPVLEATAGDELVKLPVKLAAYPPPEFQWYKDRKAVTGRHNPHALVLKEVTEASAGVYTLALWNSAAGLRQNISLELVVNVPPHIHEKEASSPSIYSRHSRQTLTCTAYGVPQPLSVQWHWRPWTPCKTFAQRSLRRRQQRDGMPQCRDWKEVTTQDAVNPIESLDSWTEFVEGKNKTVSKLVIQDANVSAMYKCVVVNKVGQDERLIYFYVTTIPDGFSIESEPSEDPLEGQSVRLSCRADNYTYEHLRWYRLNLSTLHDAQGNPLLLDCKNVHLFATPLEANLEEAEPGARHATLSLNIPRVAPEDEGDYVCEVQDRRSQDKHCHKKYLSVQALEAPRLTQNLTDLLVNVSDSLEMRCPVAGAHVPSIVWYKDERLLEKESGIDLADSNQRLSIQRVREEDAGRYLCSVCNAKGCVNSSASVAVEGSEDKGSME
Description: SPR (Biacore), 25 C.

In test [3] the target is T3, mouse VEGFR2 (Mouse, UniProt P35918 20-762, limits assumed).
T3 construct: also called VEGFR2 Mouse
T3 sequence (P35918 20-762 limits assumed): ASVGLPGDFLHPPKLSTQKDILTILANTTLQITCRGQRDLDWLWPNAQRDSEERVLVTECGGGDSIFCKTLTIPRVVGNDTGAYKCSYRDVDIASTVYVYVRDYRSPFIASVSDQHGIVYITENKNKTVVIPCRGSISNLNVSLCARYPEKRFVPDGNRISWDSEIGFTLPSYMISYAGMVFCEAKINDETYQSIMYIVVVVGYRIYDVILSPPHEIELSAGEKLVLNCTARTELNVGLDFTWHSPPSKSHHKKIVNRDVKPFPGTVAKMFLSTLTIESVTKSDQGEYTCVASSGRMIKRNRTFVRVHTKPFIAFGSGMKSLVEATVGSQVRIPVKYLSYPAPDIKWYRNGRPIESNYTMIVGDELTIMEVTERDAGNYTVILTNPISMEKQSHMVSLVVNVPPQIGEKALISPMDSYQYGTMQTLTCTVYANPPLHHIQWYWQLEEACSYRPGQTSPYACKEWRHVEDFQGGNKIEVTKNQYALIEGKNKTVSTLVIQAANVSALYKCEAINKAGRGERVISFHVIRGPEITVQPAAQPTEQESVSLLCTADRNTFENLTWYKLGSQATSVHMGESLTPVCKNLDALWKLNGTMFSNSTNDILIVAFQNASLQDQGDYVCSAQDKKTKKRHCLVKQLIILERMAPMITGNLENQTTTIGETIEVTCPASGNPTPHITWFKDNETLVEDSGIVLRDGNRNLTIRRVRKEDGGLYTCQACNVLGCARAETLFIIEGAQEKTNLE
Description: SPR (Biacore), 25 C.

The target in test [4] is T4, human VEGFR2 (Human, UniProt P35968 20-764, limits assumed).
T4 construct: also called VEGFR2 Human
T4 sequence (P35968 20-764 limits assumed): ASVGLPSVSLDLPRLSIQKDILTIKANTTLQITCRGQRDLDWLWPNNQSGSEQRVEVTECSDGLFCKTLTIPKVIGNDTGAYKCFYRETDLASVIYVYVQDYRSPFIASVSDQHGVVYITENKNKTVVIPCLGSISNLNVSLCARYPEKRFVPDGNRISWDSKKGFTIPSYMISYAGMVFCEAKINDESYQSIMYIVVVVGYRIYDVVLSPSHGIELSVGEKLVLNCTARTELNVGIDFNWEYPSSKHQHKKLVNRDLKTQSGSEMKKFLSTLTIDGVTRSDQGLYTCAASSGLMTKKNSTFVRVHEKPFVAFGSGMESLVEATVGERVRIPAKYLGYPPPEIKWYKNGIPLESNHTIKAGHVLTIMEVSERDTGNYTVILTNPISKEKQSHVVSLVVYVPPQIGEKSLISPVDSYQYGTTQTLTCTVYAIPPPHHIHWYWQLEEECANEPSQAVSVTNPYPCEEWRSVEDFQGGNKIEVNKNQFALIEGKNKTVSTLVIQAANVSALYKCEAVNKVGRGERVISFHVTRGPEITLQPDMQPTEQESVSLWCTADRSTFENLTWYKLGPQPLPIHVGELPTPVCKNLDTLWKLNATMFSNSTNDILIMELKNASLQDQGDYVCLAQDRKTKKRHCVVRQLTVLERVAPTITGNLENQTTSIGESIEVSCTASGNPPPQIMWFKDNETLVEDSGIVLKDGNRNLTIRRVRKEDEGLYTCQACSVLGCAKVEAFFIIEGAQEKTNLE
Nature of the test: SPR (Biacore), 25 C.

For test [5], the target named is T5, human VEGFR1 (SPR analyte/ligand) (human, UniProt P17948 27-758, limits assumed).
T5 construct: also called VEGFR1 Human; Flt-1
T5 sequence (P17948 27-758 limits assumed): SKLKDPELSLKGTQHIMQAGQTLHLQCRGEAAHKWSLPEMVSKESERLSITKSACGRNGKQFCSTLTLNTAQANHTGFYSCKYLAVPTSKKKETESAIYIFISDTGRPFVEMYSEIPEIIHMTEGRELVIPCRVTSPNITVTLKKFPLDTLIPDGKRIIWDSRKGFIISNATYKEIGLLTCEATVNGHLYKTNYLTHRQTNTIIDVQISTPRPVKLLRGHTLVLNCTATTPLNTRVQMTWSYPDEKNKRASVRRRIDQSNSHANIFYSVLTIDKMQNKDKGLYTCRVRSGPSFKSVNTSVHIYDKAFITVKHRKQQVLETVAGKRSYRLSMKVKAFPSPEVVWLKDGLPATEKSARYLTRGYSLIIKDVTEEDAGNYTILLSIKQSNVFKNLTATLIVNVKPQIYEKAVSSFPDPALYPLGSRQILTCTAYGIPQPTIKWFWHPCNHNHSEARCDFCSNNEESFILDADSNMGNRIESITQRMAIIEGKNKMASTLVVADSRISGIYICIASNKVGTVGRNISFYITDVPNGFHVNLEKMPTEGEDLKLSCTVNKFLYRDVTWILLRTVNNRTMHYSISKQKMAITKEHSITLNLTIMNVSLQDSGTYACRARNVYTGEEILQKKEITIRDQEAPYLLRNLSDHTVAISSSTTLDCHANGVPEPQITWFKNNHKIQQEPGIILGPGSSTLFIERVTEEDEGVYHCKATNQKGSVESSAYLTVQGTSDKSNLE
Nature of the test: SPR (Biacore), 25 C.

Test [6] has as its target T6, human VEGFR3 (Human, UniProt P35916 25-776, limits assumed).
T6 construct: also called VEGFR3 Human
T6 sequence (looked up): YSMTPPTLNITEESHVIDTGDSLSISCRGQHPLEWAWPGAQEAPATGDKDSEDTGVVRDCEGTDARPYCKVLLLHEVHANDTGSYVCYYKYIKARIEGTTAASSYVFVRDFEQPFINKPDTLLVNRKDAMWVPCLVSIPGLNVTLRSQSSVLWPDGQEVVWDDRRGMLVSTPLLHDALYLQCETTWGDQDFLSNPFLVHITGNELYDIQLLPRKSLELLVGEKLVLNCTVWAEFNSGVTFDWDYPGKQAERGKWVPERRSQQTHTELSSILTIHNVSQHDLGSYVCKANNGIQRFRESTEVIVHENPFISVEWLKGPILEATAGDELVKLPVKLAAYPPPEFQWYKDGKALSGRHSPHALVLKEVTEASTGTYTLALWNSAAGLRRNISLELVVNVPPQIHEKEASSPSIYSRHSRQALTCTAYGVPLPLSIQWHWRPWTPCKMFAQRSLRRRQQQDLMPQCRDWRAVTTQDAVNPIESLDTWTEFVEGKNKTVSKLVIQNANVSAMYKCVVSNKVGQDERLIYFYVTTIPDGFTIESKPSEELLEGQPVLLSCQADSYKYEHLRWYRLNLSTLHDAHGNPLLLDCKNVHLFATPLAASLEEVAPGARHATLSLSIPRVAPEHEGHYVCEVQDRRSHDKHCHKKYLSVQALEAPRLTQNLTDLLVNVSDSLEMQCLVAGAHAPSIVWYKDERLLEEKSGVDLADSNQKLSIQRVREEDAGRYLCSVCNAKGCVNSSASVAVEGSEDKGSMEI
Description: SPR (Biacore), 25 C.

In test [7] the target is T1, mouse VEGFR1. Nature of the test: SPR (Biacore), 25 C, n=4.

B1: Antibody III (antibody)
heavy: QVQLKESGPGLVRPSETLSLTCTVSGFSLSDYSLSWVRRPSGKGPEWLGRLWFDGDTTYNSAFKSRLTISRDTSKDQVFLKMNSLQTDDTGTYYCTRDDRDFDYWGQGVMVTVSSAETTAPSVYPLAPGTALKSNSMVTLGCLVKGYFPEPVTVTWNSGALSSGVHTFPAVLQSGLYTLTSSVTVPSSTWPSQTVTCNVAHPASSTKVDKKIVPRNCGGDCKPCICTGSEVSSVFIFPPKPKDVLTITLTPKVTCVVVDISQDDPEVHFSWFVDDVEVHTAQTRPPEEQFNSTFRSVSELPILHQDWLNGRTFRCKVTSAAFPSPIEKTISKPEGRTQVPHVYTMSPTKEEMTQNEVSITCMVKGFYPPDIYVEWQMNGQPQENYKNTPPTMDTDGSYFLYSKLNVKKEKWQQGNTFTCSVLHEGLHNHHTEKSLSHSPGK
light: DIVMTQTPVSMSVSLGGQVSISCRSSQSLVNNNGNTYLSWYIQKPSQSPQLLIYKVSNRVSGISDRFSGSGSGTDFTLKINKIEPDDLGVYYCGQNTQYPLTFGSGTKLEIKRADAAPTVSIFPPSTEQLATGGASVVCLMNNFYPRDISVKWKIDGTERRDGVLDSVTDQDSKDSTYSMSSTLSLTKADYESHNLYTCEVVHKTSSSPVVKSFNRNEC
notes: also called Ab III; Antibody 3
In test [1], B1 showed a Kd of 0.032 nM and a koff of 1.87e-05 s⁻¹.

B2: Antibody IV (antibody, mouse IgG1, kappa)
heavy: QVQLKESGPGLVRPSETLSLTCTVSGFSLSDYSLSWVRRPSGKGPEWLGRLWFDGDTTYNSAFKSRLTISRDTSKDQVFLKMNSLQTDDTGTYYCTRDDRDFDYWGQGVMVTVSSAKTTPPSVYPLAPGSAAQTNSMVTLGCLVKGYFPEPVTVTWNSGSLSSGVHTFPAVLQSDLYTLSSSVTVPSSTWPSETVTCNVAHPASSTKVDKKIVPRDCGCKPCICTVPEVSSVFIFPPKPKDVLTITLTPKVTCVVVDISKDDPEVQFSWFVDDVEVHTAQTQPREEQFNSTFRSVSELPIMHQDWLNGKEFKCRVNSAAFPAPIEKTISKTKGRPKAPQVYTIPPPKEQMAKDKVSLTCMITDFFPEDITVEWQWNGQPAENYKNTQPIMDTDGSYFVYSKLNVQKSNWEAGNTFTCSVLHEGLHNHHTEKSLSHSPG
light: DIVMTQTPVSMSVSLGGQVSISCRSSQSLVNNNGNTYLSWYIQKPSQSPQLLIYKVSNRVSGISDRFSGSGSGTDFTLKINKIEPDDLGVYYCGQNTQYPLTFGSGTKLEIKRADAAPTVSIFPPSSEQLTSGGASVVCFLNNFYPKDINVKWKIDGSERQNGVLNSWTDQDSKDSTYSMSSTLTLTKDEYERHNSYTCEATHKTSTSPIVKSFNRNEC
notes: also called Ab IV; Antibody 4
Turning to B2, the binding result in test [2], in test [3], in test [4], in test [5] and in test [6] was “no binding (tested: ~200 nM)” in each case. In test [7], this molecule returned a Kd not above 0.018 nM. Moreover, the koff in test [7] was less than 1e-05 s⁻¹.
